{
  "source": "paper PMC6122996",
  "about": "(The Journal of Cell Biology, 2018)",
  "molecules": {"B1": {"name": "GST-CENP-F-NBD (GST-tagged CENP-F fragment containing its Nde1-binding domain) (domain or fragment, human, UniProt P49454 2122-2297, looked up)", "chain": "EKLRVRIEADEKKQLHIAEKLKERERENDSLKDKVENLERELQMSEENQELVILDAENSKAEVETLKTQIEEMARSLKVFELDLVTLRSEKENLTKQIQEKQGQLSELDKLLSSFKSLLEEKEQAEIQIKEESKTAVEMLQNQLKELNEAVAALCGDQEIMKATEQSLDPPIEEEH"}, "B2": {"name": "GFP-Nde1-3E (triple phosphomimetic Nde1) (natural protein, mouse, UniProt Q9CZA6 1-344, looked up)", "chain": "MEDSGKTFESEEEETNYWRDLAMTYKQRAENTQEELREFQEGSREYEAELEAQLQQIETRNRDLLSENNRLRMELESVKEKFEMQHSEGYRQISALEDDLAQTKAIKDQLQKYIRELEQANDDLERAKRATIMSLEDFEQRLNQAIERNAFLESELDEKENLLESVQRLKDEARDLRQELAVQQKQDKPRTPMPGSGQAKRTDMAVQATGSVPSEPVAHRGPSSGLNTPGMFRRGLDSSTSGEPLEPAARISALNIVGDLLRKVGALESKLASCRNFMYDQSPSRTSGPASGRGTKNRDGVDRRPGSTSVGDKGSGKRLEFGKPASEPASPALPSAQGVVKLLL"}},
  "key": {"[1]": {"molecular_target": "CENP-F (UniProt P49454)", "test": "anti-GFP co-immunoprecipitation", "conditions": "reference: GFP WT Nde1; sites T215,T243,T246"}, "[2]": {"molecular_target": "T1, recombinant WT full-length Nde1, not phosphorylated (dephospho-Nde1) (mouse, UniProt Q9CZA6 1-344)", "T1 sequence (looked up)": "B2 chain with E215T, E243T, E246T", "test": "pull-down"}, "[3]": {"molecular_target": "B1", "test": "pull-down"}},
  "note": "Substitutions are numbered along the chain they refer to.",
  "data": [
    {"molecule": "Nde1 (from UniProt Q9CZA6) GFP-Nde1-3A", "values": [
      {"measurement": "binding against the reference", "setting": "[1]", "value": "weaker"}
    ]},
    {"molecule": "B1", "values": [
      {"measurement": "binding result", "setting": "[2]", "value": "binds"}
    ]},
    {"molecule": "B2", "values": [
      {"measurement": "fold level pulled down against Nde1-3A", "setting": "[3]", "value": 2.5, "unit": "fold"}
    ]}
  ]
}
